# Results published in US20160009772A1 (published 2016).
# Primed or numbered codes have the meaning given here. FITC′ = fluorescein isothiocyanate; Ahx = NCCCCCC(=O)O
# Target: N-terminal His (six histadine)-tagged IRF5 (222-425) SEQ ID NO 22 (UniProt Q13568 222-425)
# Test: TR-FRET
# N-terminal His (six histadine)-tagged IRF5 (222-425) SEQ ID NO 22, sequence (Q13568 other isoform, or with tags, fused parts or gaps): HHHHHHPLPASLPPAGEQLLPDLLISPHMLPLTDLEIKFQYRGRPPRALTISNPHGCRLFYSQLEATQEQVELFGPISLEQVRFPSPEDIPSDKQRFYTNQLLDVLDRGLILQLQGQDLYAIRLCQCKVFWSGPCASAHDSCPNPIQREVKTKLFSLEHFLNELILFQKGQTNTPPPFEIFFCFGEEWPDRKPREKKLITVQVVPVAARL
row,Binder,Kd [nM]
1,{FITC′-Ahx}-IRLQISNPYLKFIPLKRAIWLIK-NH2 [FITC-Aha-IRLQISNPYLKFIPLKRAIWLIK-NH2 (SEQ ID NO: 16)],930
2,{FITC′-Ahx}-MIILIISFPKHKDWKVILVK-NH2 [FITC-Aha-MIILIISFPKHKDWKVILVK-NH2 (SEQ ID NO: 17)],530
